Test results published in patent US20250320281A1.

Columns and labels:
Assay in all cases: cell-based or functional assay
[1] = molecular target: HIV-1 92RW020 envelope glycoprotein (Env) on pseudovirus (HIV-1)
[2] = molecular target: HIV-1 92TH021 envelope glycoprotein (Env) on pseudovirus (HIV-1)
[3] = molecular target: HIV-1 94UG103 envelope glycoprotein (Env) on pseudovirus (HIV-1)
[4] = molecular target: HIV-1 Env of isolate 93TH305 (subtype B pseudovirus) (HIV-1)
[5] = molecular target: HIV-1 Env of isolate CAAN.A2 (subtype B pseudovirus) (HIV-1)
[6] = molecular target: HIV-1 Env of isolate MGRM-AE-005 (HIV-1)
[7] = molecular target: HIV-1 Env of isolate MGRM-AG-009 (HIV-1)
[8] = molecular target: HIV-1 Env of isolate MGRM-C-026 (HIV-1)
[9] = molecular target: HIV-1 Env of isolate MGRM-C-028 (HIV-1)
[10] = molecular target: HIV-1 Env of isolate MGRM-Chronic-B-017 (subtype B pseudovirus) (HIV-1)
[11] = molecular target: HIV-1 Env of isolate MGRM-D-002 (pseudovirus) (HIV-1)
[12] = molecular target: HIV-1 Env of isolate MGRM-F1-006 (pseudovirus) (HIV-1)
[13] = molecular target: HIV-1 Env of isolate MGRM-F1-021 (HIV-1)
[14] = molecular target: HIV-1 Env of isolate TRJ04551.58 (subtype B pseudovirus) (HIV-1)
[15] = molecular target: HIV-1 JRCSF Env (pseudovirus, clade B) (HIV-1) (UniProt P20871)
[16] = molecular target: HIV-1 Env of isolate 92WR021 (HIV-1)
[17] = molecular target: HIV-1 Env of isolate 93WR029 (HIV-1)
[18] = molecular target: HIV-1 Env of isolate 94KE105 (subtype AC) (HIV-1)
[19] = molecular target: HIV-1 Env of isolate APV-6 (HIV-1)
[20] = molecular target: HIV-1 Env of isolate JRFL (subtype B) (HIV-1)
[21] = molecular target: HIV-1 Env of isolate MG RM-D-013 (HIV-1)
[22] = molecular target: HIV-1 Env of isolate MG RM-D-014 (HIV-1)
[23] = molecular target: HIV-1 Env of isolate MG RM-D-019 (HIV-1)
[24] = molecular target: HIV-1 Env of isolate MGRM-AE-006 (subtype AE) (HIV-1)
[25] = molecular target: HIV-1 Env of isolate MGRM-AG-006 (subtype AG) (HIV-1)
[26] = molecular target: HIV-1 Env of isolate MGRM-C-002 (subtype C) (HIV-1)
[27] = molecular target: HIV-1 envelope glycoprotein (Env) of isolate MGRM-C-009 (HIV-1)
[28] = molecular target: HIV-1 envelope glycoprotein (Env) of isolate MGRM-C-012 (HIV-1)
[29] = molecular target: HIV-1 envelope glycoprotein (Env) of isolate MGRM-C-020 (HIV-1)
[30] = molecular target: HIV-1 envelope glycoprotein (Env) of isolate MGRM-C-027 (HIV-1)
[31] = molecular target: aMLV envelope (negative control pseudovirus)

Sequence of 5329_C19 (PGT-136) (antibody) (VH): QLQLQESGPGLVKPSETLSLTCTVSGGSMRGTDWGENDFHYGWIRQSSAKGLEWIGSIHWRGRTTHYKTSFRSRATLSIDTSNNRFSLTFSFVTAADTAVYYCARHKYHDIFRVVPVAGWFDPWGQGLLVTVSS
Sequence of 5329_C19 (PGT-136) (antibody) (VL): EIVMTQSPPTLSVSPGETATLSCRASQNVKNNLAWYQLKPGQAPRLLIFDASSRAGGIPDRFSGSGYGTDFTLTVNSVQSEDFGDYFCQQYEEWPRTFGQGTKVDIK

Row | Substance | IC50 (µg/mL), pseudovirus neutralization [4] | IC50 (µg/mL), pseudovirus neutralization [5] | IC50 [6] | IC50 [7] | neutralization IC50 [8] | neutralization IC50 [9] | IC50 (µg/mL), pseudovirus neutralization [10] | IC50, pseudovirus neutralization [11] | IC50, pseudovirus neutralization [12] | IC50 (µg/mL), pseudovirus neutralization [13] | IC50 (µg/mL), pseudovirus neutralization [14] | IC50 neutralization [15] | IC50 [16] | IC50 [17] | IC50 (µg/mL), pseudovirus neutralization [18] | neutralization IC50 [19] | IC50 neutralization [20] | IC50 (µg/mL), pseudovirus neutralization [21] | IC50 (µg/mL), pseudovirus neutralization [22] | IC50 (µg/mL), pseudovirus neutralization [23] | other results
1 | 4858_P08 (PGT-123) (antibody) | 0.008 µg/mL | 0.015 µg/mL | > 50 µg/mL | 0.073 µg/mL | 0.001 µg/mL | 0.402 µg/mL | > 50 µg/mL | 0.012 µg/mL | 6.89 µg/mL | 0.307 µg/mL | 16.9 µg/mL | 0.0423 µg/mL |  |  |  |  |  |  |  |  | neutralization IC50 [1]: 0.0038 µg/mL; neutralization IC80 [1]: 0.0106 µg/mL; neutralization IC90 [1]: 0.0194 µg/mL; neutralization IC95 [1]: 0.0343 µg/mL; neutralization IC50 [2]: > 10 µg/mL; neutralization IC80 [2]: > 10 µg/mL; neutralization IC90 [2]: > 10 µg/mL; neutralization IC95 [2]: > 10 µg/mL; neutralization IC50 [3]: 0.846 µg/mL; neutralization IC80 [3]: 3.29 µg/mL; neutralization IC90 [3]: 8.56 µg/mL; neutralization IC95 [3]: > 10 µg/mL
2 | 4877_D15 (PGT-122) (antibody) | 0.013 µg/mL | 0.011 µg/mL | > 50 µg/mL | 0.128 µg/mL | 0.006 µg/mL | 2.22 µg/mL | 5.66 µg/mL | 0.005 µg/mL | 3.27 µg/mL | 2.3 µg/mL | > 50 µg/mL | 0.0727 µg/mL |  |  |  |  |  |  |  |  | 
3 | 5145_B14 (PGT-127) (antibody) | 0.017 µg/mL | 0.371 µg/mL | > 50 µg/mL | 0.059 µg/mL | 0.014 µg/mL | 7.57 µg/mL | > 50 µg/mL | 0.6 µg/mL | 7.17 µg/mL | > 50 µg/mL | 0.063 µg/mL |  |  |  |  |  |  |  |  |  | 
4 | 4838_L06 (PGT-121) (antibody) | 0.007 µg/mL | 0.011 µg/mL | > 50 µg/mL | 0.08 µg/mL | 0.002 µg/mL | 0.472 µg/mL | > 50 µg/mL | 0.006 µg/mL | 5.33 µg/mL | 0.099 µg/mL | 7.09 µg/mL |  |  |  |  |  |  |  |  |  | 
5 | 5123_A06 (PGT-125) (antibody) | 0.008 µg/mL | 5.47 µg/mL | 0.01 µg/mL | 0.026 µg/mL | 0.005 µg/mL | 14 µg/mL | > 50 µg/mL | 0.118 µg/mL | 0.035 µg/mL | > 50 µg/mL | 0.019 µg/mL | 0.006 µg/mL |  |  |  |  |  |  |  |  | 
6 | 5343_B08 (PGT-135) (antibody) |  |  |  |  |  |  |  |  |  |  |  | 0.113 µg/mL | > 50 µg/mL | > 50 µg/mL | 0.063 µg/mL | > 50 µg/mL | > 50 µg/mL | > 50 µg/mL | 2.21 µg/mL | > 50 µg/mL | IC50 (µg/mL), pseudovirus neutralization [24]: > 50 µg/mL; IC50 (µg/mL), pseudovirus neutralization [25]: 17.9 µg/mL; IC50 neutralization [26]: > 50 µg/mL; IC50 (µg/mL), pseudovirus neutralization [27]: > 50 µg/mL; IC50 (µg/mL), pseudovirus neutralization [28]: 0.017 µg/mL; IC50 (µg/mL), pseudovirus neutralization [29]: > 50 µg/mL; IC50 (µg/mL), pseudovirus neutralization [30]: > 50 µg/mL; IC50 (neutralizing activity, pseudovirus) [31]: > 10 µg/mL
7 | 5114_A19 (PGT-128) (antibody) |  |  |  |  |  |  |  |  |  |  |  |  | 0.005 µg/mL | > 50 µg/mL | 0.007 µg/mL | 0.007 µg/mL | 0.007 µg/mL | 8.85 µg/mL | 0.013 µg/mL | > 50 µg/mL | IC50 (µg/mL), pseudovirus neutralization [24]: 0.044 µg/mL; IC50 (µg/mL), pseudovirus neutralization [25]: 0.009 µg/mL; IC50 neutralization [26]: 0.019 µg/mL; IC50 (µg/mL), pseudovirus neutralization [27]: > 50 µg/mL; IC50 (µg/mL), pseudovirus neutralization [28]: 0.058 µg/mL; IC50 (µg/mL), pseudovirus neutralization [29]: 5.85 µg/mL; IC50 (µg/mL), pseudovirus neutralization [30]: 0.081 µg/mL
8 | 5141_B17 (PGT-126) (antibody) | 0.013 µg/mL | 0.273 µg/mL | 0.324 µg/mL | 0.03 µg/mL | 0.007 µg/mL | 0.196 µg/mL | > 50 µg/mL | 0.039 µg/mL | 0.078 µg/mL | > 50 µg/mL | 0.025 µg/mL | 0.0061 µg/mL |  |  |  |  |  |  |  |  | IC50, pseudovirus neutralization [1]: 0.0046 µg/mL; IC80 (pseudovirus neutralization) [1]: 0.0168 µg/mL; IC90 (pseudovirus neutralization) [1]: 0.0359 µg/mL; IC95 (pseudovirus neutralization) [1]: 0.0728 µg/mL; IC50, pseudovirus neutralization [2]: 0.115 µg/mL; IC80 (pseudovirus neutralization) [2]: 1.62 µg/mL; IC90 (pseudovirus neutralization) [2]: 6.91 µg/mL; IC95 (pseudovirus neutralization) [2]: > 10 µg/mL; IC50, pseudovirus neutralization [3]: 0.0091 µg/mL; IC80 (pseudovirus neutralization) [3]: 0.0316 µg/mL; IC90 (pseudovirus neutralization) [3]: 0.0655 µg/mL; IC95 (pseudovirus neutralization) [3]: 0.128 µg/mL
9 | 5329_C19 (PGT-136) (antibody) |  |  |  |  |  |  |  |  |  |  |  | > 10 µg/mL | > 50 µg/mL | > 50 µg/mL | > 50 µg/mL | > 50 µg/mL | > 50 µg/mL | > 50 µg/mL | > 50 µg/mL | > 50 µg/mL | IC50 (µg/mL), pseudovirus neutralization [24]: > 50 µg/mL; IC50 (µg/mL), pseudovirus neutralization [25]: 29.1 µg/mL; IC50 neutralization [26]: > 50 µg/mL; IC50 (µg/mL), pseudovirus neutralization [27]: > 50 µg/mL; IC50 (µg/mL), pseudovirus neutralization [28]: > 50 µg/mL; IC50 (µg/mL), pseudovirus neutralization [29]: > 50 µg/mL; IC50 (µg/mL), pseudovirus neutralization [30]: > 50 µg/mL; IC50 (neutralizing activity, pseudovirus) [31]: > 10 µg/mL
10 | 5147_N06 (PGT-130) (antibody) |  |  |  |  |  |  |  |  |  |  |  | 0.0089 µg/mL | 0.004 µg/mL | 34.3 µg/mL | 0.004 µg/mL | > 50 µg/mL | 0.046 µg/mL | 0.429 µg/mL | 0.061 µg/mL | > 50 µg/mL | IC50 (µg/mL), pseudovirus neutralization [24]: 0.009 µg/mL; IC50 (µg/mL), pseudovirus neutralization [25]: 0.009 µg/mL; IC50 neutralization [26]: > 50 µg/mL; IC50 (µg/mL), pseudovirus neutralization [27]: > 50 µg/mL; IC50 (µg/mL), pseudovirus neutralization [28]: > 50 µg/mL; IC50 (µg/mL), pseudovirus neutralization [29]: > 50 µg/mL; IC50 (µg/mL), pseudovirus neutralization [30]: 0.008 µg/mL
